This note sets out measurements from publication PMC10871247 (bioRxiv, 2024).

In general, stoichiometry N refers to the number of molecules, sites or subunits per partner or assembly.

Data set [1] concerns the molecule itself. The data set can be described thus: native gel or EMSA. For orientation: A gel shift assay detects complexes by their altered migration in electrophoresis.
Data set [2] deals with the molecule itself. The data set can be described thus: SEC. (In general: In gel filtration, larger molecules generally elute earlier.)
Data set [3] deals with the molecule itself. The data set can be described thus: native MS.

B1: 3×Ala-MxEnc (natural protein, Myxococcus xanthus)
chain: MPDFLGHAENPLREEEWARLNETVIQVARRSLVGRRILDIYGPLGAGVQTVPYDEFQGVSPGAVDIVGEQETAMVFTDARKFKTIPIIYKDFLLHWRDIEAARTHNMPLDVSAAAGAAALCAQQEDELIFYGDARLGYEGLMTANGRLTVPLGDWTSPGGGFQAIVEATRKLNEQGHFGPYAVVLSPRLYSQLHRIYEAAAVLEIETIRQLASDGVYQSNRLRGESGVVVSTGRENMDLAVSMDMVAAYLGASRMNHPFRVLEALLLRIKHPDAICTLEGAGATERR
With B1, the binding result in data set [1] is “binds”.

B2: 3×Asp-MxEnc (natural protein, Myxococcus xanthus)
chain: MPDFLGHAENPLREEEWARLNETVIQVARRSLVGRRILDIYGPLGAGVQTVPYDEFQGVSPGAVDIVGEQETAMVFTDARKFKTIPIIYKDFLLHWRDIEAARTHNMPLDVSAAAGAAALCAQQEDELIFYGDARLGYEGLMTANGRLTVPLGDWTSPGGGFQAIVEATRKLNEQGHFGPYAVVLSPRLYSQLHRIYEDDDVLEIETIRQLASDGVYQSNRLRGESGVVVSTGRENMDLAVSMDMVAAYLGASRMNHPFRVLEALLLRIKHPDAICTLEGAGATERR
For the protein B2, the binding result in data set [2] is given as “binds”.

B3: 3×His-MxEnc (K199H/T200H/G201H triple point mutant of the M. xanthus encapsulin) (natural protein, Myxococcus xanthus)
chain: MPDFLGHAENPLREEEWARLNETVIQVARRSLVGRRILDIYGPLGAGVQTVPYDEFQGVSPGAVDIVGEQETAMVFTDARKFKTIPIIYKDFLLHWRDIEAARTHNMPLDVSAAAGAAALCAQQEDELIFYGDARLGYEGLMTANGRLTVPLGDWTSPGGGFQAIVEATRKLNEQGHFGPYAVVLSPRLYSQLHRIYEHHHVLEIETIRQLASDGVYQSNRLRGESGVVVSTGRENMDLAVSMDMVAAYLGASRMNHPFRVLEALLLRIKHPDAICTLEGAGATERR
B3: the “stoichiometry N” value in data set [3] was found to be 60.
